{"source": "paper PMC3624988", "about": "(Developmental cell, 2013)", "target": "Flag:Jub (full length Ajuba LIM protein Jub, 1-729aa) (Drosophila, UniProt Q9VY77 1-728)", "sequence (Q9VY77 whole entry)": "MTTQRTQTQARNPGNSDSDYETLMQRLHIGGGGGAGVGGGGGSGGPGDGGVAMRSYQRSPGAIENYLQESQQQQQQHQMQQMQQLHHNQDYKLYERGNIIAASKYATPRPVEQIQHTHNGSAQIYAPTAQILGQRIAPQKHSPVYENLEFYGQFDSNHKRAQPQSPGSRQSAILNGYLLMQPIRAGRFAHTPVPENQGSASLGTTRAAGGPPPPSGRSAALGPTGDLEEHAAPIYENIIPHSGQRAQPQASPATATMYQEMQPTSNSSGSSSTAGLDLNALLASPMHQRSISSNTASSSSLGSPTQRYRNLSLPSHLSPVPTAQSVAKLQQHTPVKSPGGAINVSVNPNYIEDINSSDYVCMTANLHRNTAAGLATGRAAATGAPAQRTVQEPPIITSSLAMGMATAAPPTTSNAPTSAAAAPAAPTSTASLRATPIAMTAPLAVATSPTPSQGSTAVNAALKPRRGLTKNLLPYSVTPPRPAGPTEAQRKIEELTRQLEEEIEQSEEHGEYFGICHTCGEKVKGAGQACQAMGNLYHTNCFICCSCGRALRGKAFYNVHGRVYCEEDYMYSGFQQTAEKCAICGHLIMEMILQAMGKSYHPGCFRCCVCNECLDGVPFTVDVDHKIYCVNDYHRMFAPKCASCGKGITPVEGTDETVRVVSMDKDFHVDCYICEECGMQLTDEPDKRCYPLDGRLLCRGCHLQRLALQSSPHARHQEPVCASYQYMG", "assay": "co-IP", "data": [{"binder": "Myc:Wts (Myc-tagged Warts) (enzyme, Drosophila, UniProt Q9VA38 1-1105, looked up) MHPAGEKRGGRPNDKYTAEALESIKQDLTRFEVQNNHRNNQNYTPLRYTATNGRNDALTPDYHHAKQPMEPPPSASPAPDVVIPPPPAIVGQPGAGSISVSGVGVGVVGVANGRVPKMMTALMPNKLIRKPSIERDTASSHYLRCSPALDSGAGSSRSDSPHSHHTHQPSSRTVGNPGGNGGFSPSPSGFSEVAPPAPPPRNPTACSAATPPPPVPPTSQAYVKRRSPALNNRPPAIAPPTQRGNSPVITQNGLKNPQQQLTQQLKSLNLYPGGGSGAVVEPPPPYLIQGGAGGAAPPPPPPSYTASMQSRQSPTQSQQSDYRKSPSSGIYSATSAGSPSPITVSLPPAPLAKPQPRVYQARSQQPIIMQSVKSTQVQKPVLQTAVAPQSPSSASASNSPVHVLAAPPSYPQKSAAVVQQQQQAAAAAHQQQHQHQQSKPPTPTTPPLVGLNSKPNCLEPPSYAKSMQAKAATVVQQQQQQQQQQQQVQQQQVQQQQQQQQQQLQALRVLQAQAQRERDQRERDQRERERDQQKLANGNPGRQMLPPPPYQSNNNNNSEIKPPSCNNNNIQISNSNLATTPPIPPAKYNNNSSNTGANSSGGSNGSTGTTASSSTSCKKIKHASPIPERKKISKEKEEERKEFRIRQYSPQAFKFFMEQHIENVIKSYRQRTYRKNQLEKEMHKVGLPDQTQIEMRKMLNQKESNYIRLKRAKMDKSMFVKLKPIGVGAFGEVTLVSKIDTSNHLYAMKTLRKADVLKRNQVAHVKAERDILAEADNNWVVKLYYSFQDKDNLYFVMDYIPGGDLMSLLIKLGIFEEELARFYIAEVTCAVDSVHKMGFIHRDIKPDNILIDRDGHIKLTDFGLCTGFRWTHNSKYYQENGNHSRQDSMEPWEEYSENGPKPTVLERRRMRDHQRVLAHSLVGTPNYIAPEVLERSGYTQLCDYWSVGVILYEMLVGQPPFLANSPLETQQKVINWEKTLHIPPQAELSREATDLIRRLCASADKRLGKSVDEVKSHDFFKGIDFADMRKQKAPYIPEIKHPTDTSNFDPVDPEKLRSNDSTMSSGDDVDQNDRTFHGFFEFTFRRFFDDKQPPDMTDDQAPVYV", "values": [{"measurement": "fold change of binding with Ras-MAPK activation against without", "result": 2, "unit": "fold"}]}, {"binder": "Sav:V5 (V5-tagged Salvador) (natural protein, Drosophila, UniProt Q9VCR6 1-608, looked up) MNYLTILLCNRKPTMLSRRNKEKSQHKEGVVGKYMKKDTPPDISVINVWSDQRAKKKSLQRCASTSPSCEFHPRSSSTSRNTYSCTDSQPDYYHARRAQSQMPLQQHSHSHPHSLPHPSHPHVRSHPPLPPHQFRASSNQLSQNSSNYVNFEQIERMRRQQSSPLLQTTSSPAPGAGGFQRSYSTTQRQHHPHLGGDSYDADQGLLSASYANMLQLPQRPHSPAHYAVPPQQQQHPQIHQQHASTPFGSTLRFDRAAMSIRERQPRYQPTSSPMQQQQQQQQQQQQQLQHTQLAAHLGGSYSSDSYPIYENPSRVISMRATQSQRSESPIYSNTTASSATLAVVPQHHHQGHLAVPSGSGGGSLSGSGRGGSSGSVRGASTSVQSLYVPPRTPPSAVAGAGGSANGSLQKVPSQQSLTEPEELPLPPGWATQYTLHGRKYYIDHNAHTTHWNHPLEREGLPVGWRRVVSKMHGTYYENQYTGQSQRQHPCLTSYYVYTTSAEPPKAIRPEASLYAPPTHTHNALVPANPYLLEEIPKWLAVYSEADSSKDHLLQFNMFSLPELEGFDSMLVRLFKQELGTIVGFYERYRRALILEKNRRAGQNQNQNQ", "values": [{"measurement": "fold change of binding with Ras-MAPK activation against without", "result": 3, "unit": "fold"}]}]}
